# From paper PMC13315262, “In silico discovery of nanobody binders to a G-protein coupled receptor using AlphaFold-Multimer” (Nature Communications, 2026)
# B1: MAS-related GPR family member X2 (MRGPRX2), endogenous on ROSA mast cells (receptor, human (endogenous in ROSA), UniProt Q96LB1 1-330, looked up)
# chain: MDPTTPAWGTESTTVNGNDQALLLLCGKETLIPVFLILFIALVGLVGNGFVLWLLGFRMRRNAFSVYVLSLAGADFLFLCFQIINCLVYLSNFFCSISINFPSFFTTVMTCAYLAGLSMLSTVSTERCLSVLWPIWYRCRRPRHLSAVVCVLLWALSLLLSILEGKFCGFLFSDGDSGWCQTFDFITAAWLIFLFMVLCGSSLALLVRILCGSRGLPLTRLYLTILLTVLVFLLCGLPFGIQWFLILWIWKDSDVLFCHIHPVSVVLSSLNSSANPIIYFFVGSFRKQWRLQQPILKLALQRALQDIAEVDHSEGCFRQGTPEMSRSSLV
# notes: MAS-related GPR family member X2 (MRGPRX2), a GPCR, endogenously expressed at high levels on the ROSA mast cell line; source: endogenous, on ROSA mast cells (immortalized mast cell line)
# B2: human N-terminal FLAG-tagged MRGPRX2, on transfected HEK293T cells (receptor, UniProt Q96LB1 1-330, looked up)
# chain: MDPTTPAWGTESTTVNGNDQALLLLCGKETLIPVFLILFIALVGLVGNGFVLWLLGFRMRRNAFSVYVLSLAGADFLFLCFQIINCLVYLSNFFCSISINFPSFFTTVMTCAYLAGLSMLSTVSTERCLSVLWPIWYRCRRPRHLSAVVCVLLWALSLLLSILEGKFCGFLFSDGDSGWCQTFDFITAAWLIFLFMVLCGSSLALLVRILCGSRGLPLTRLYLTILLTVLVFLLCGLPFGIQWFLILWIWKDSDVLFCHIHPVSVVLSSLNSSANPIIYFFVGSFRKQWRLQQPILKLALQRALQDIAEVDHSEGCFRQGTPEMSRSSLV
# notes: MRGPRX2, human, N-terminal FLAG-tagged, in a pcDNA3.1 expression vector; also called FLAG-MRGPRX2; wild type MRGPRX2; source: HEK293T, transiently transfected (pcDNA3.1), on cells; not shown: FLAG, N-terminal, kept
# Assays:
# Settings in all cases: one partner purified
# [1] = target: T1, FLAG-MC4R, on transfected HEK293T cells (Homo sapiens (Human)., UniProt P32245); test: flow cytometry on cells; monomeric nanobody or variant with V5 tag, 1-2 h at 4 °C, on HEK293T cells transfected with FLAG-MRGPRX2, FLAG-MC4R, FLAG-CXCR3 or empty vector; HBS + 0.1% BSA + 2 mM calcium; anti-V5-APC
# T1 construct: source: HEK293T, transiently transfected, on cells
# T1 sequence (P32245 whole entry): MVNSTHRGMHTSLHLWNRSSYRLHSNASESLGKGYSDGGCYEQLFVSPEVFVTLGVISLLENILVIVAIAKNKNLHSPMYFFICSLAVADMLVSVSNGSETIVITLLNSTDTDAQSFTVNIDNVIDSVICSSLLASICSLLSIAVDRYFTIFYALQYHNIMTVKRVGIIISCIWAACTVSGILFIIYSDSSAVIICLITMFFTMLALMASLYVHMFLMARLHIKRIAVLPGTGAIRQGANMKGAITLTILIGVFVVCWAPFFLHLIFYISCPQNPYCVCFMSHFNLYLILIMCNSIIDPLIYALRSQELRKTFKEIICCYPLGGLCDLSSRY
# [2] = target: B2; test: as above
# [3] = target: B1; test: flow cytometry on cells; dose response of nanobody on ROSA mast cells (100,000 cells per well), 30 min at 4 °C; anti-human IgG Fc-AF488; MFI; for Kd the non-specific signal was the MFI with Nb 60
# [4] = target: T2, Nanobody Sim8619 (rank 1), human IgG1 Fc fusion; test: as above
# T2 construct: (GGS)3 linker between the nanobody and the Fc; cloned into pFUSE-CHIg-hG1 with H435A in the Fc; also called Nb Sim 8619; source: Expi293F, transiently transfected, purified (protein A); not shown: Fc (human IgG1, H435A), C-terminal, kept
# [5] = target: T3, Nanobody Sim9877 (rank 5), human IgG1 Fc fusion; test: as above
# T3 construct: (GGS)3 linker between the nanobody and the Fc; cloned into pFUSE-CHIg-hG1 with H435A in the Fc; also called Nb Sim9877; source: Expi293F, transiently transfected, purified (protein A); not shown: Fc (human IgG1, H435A), C-terminal, kept
# [6] = target: T4, Nanobody Sim4784 (rank 7), human IgG1 Fc fusion; test: as above
# T4 construct: (GGS)3 linker between the nanobody and the Fc; cloned into pFUSE-CHIg-hG1 with H435A in the Fc; source: Expi293F, transiently transfected, purified (protein A); not shown: Fc (human IgG1, H435A), C-terminal, kept
# [7] = target: T2, Nanobody Sim8619 (rank 1), human IgG1 …; test: flow cytometry on cells; nanobody-Fc at the indicated concentrations, 1 h at 4 °C, on HEK293T cells transfected with FLAG-MRGPRX2, MRGPRX2 E164A D184A or empty vector; HBS + 2% FBS + 0.05% BSA; anti-human Fc-AF647; non-specific signal from empty-vector cells
# [8] = target: T3, Nanobody Sim9877 (rank 5), human IgG1 …; test: as above
# [9] = target: T4, Nanobody Sim4784 (rank 7), human IgG1 …; test: as above
binder,measurement,setting,value
"Nanobody Sim4784 (rank 7), monomeric (monovalent format) (VHH, source: E. coli BL21-DE3 (pET-26b), purified (protein A, Ni-NTA); not shown: V5, C-terminal, kept) VHH: QVQLQESGGGLVQAGGSLRLSCAASGTISPPTYMGWYRQAPGKERELVASIGAGSNTNYADSVKGRFTISRDNAKNTVYLQMNSLKPEDTAVYYCAAIFGRLWYHLYWGQGTQVTVSS",binding result,[1],binds
same,binding result,[2],binds
"Nanobody Sim8619 (rank 1) with an R102A mutation (VHH, as the nanobody of m5 (Sim8619); the ROSA cell assay is told only for Fc fusions, nanobody variants are told as monomers from E. coli; also called R102A mutant; Sim8619 R102A) VHH: QVQLQESGGGLVQAGGSLRLSCAASGSIFYIRGMGWYRQAPGKERELVAGIDVGAITYYADSVKGRFTISRDNAKNTVYLQMNSLKPEDTAVYYCAVWAYTAAGYTTVYAYWGQGTQVTVSS",EC50,[3],210 nM
"Nanobody Sim8619 (rank 1), monomeric (monovalent format) (VHH, source: E. coli BL21-DE3 (pET-26b), purified (protein A, Ni-NTA); not shown: V5, C-terminal, kept) VHH: QVQLQESGGGLVQAGGSLRLSCAASGSIFYIRGMGWYRQAPGKERELVAGIDVGAITYYADSVKGRFTISRDNAKNTVYLQMNSLKPEDTAVYYCAVWAYTRAGYTTVYAYWGQGTQVTVSS",binding result,[2],binds
B1,Kd,[4],100 nM
same,Kd,[5],20 nM
same,Kd,[6],50 nM
B2,Kd,[7],200 nM
same,Kd,[8],160 nM
same,Kd,[9],80 nM
"Nanobody Sim9877 (rank 5), monomeric (monovalent format) (VHH, source: E. coli BL21-DE3 (pET-26b), purified (protein A, Ni-NTA); not shown: V5, C-terminal, kept) VHH: QVQLQESGGGLVQAGGSLRLSCAASGYISSFPVMGWYRQAPGKERELVAAIGSGGITYYADSVKGRFTISRDNAKNTVYLQMNSLKPEDTAVYYCAVAGYNIGSYYYWGQGTQVTVSS",binding result,[2],binds
